Patent US20220372105A1 (POSEIDA THERAPEUTICS, published 2022)

Biological target: T1, CD58 (UniProt P19256 29-215, limits assumed)
T1 construct: also called naturally occurring CD58
T1 sequence (looked up): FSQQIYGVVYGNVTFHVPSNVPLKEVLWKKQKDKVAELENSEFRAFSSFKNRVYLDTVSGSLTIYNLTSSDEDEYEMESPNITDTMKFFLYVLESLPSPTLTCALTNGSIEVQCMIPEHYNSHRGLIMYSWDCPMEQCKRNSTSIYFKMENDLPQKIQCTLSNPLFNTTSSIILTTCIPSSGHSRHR
Test: not described (screen of a CSR mutant panel)

B1: CD2 extracellular domain with D111H mutation ("CD2 ECD (D111H)") (receptor)
chain: KEITNALETWGALGQDINLDIPSFQMSDDIDDIKWEKTSDKKKIAQFRKEKETFKEKDTYKLFKNGTLKIKHLKTDDQDIYKVSIYHTKGKNVLEKIFDLKIQERVSKPKISWTCINTTLTCEVMNGTDPELNLYQDGKHLKLSQRVITHKWTTSLSAKFKCTAGNKVSKESSVEPVSCPEKGLD
notes: also called CSR CD2z-D111H mutant; mutant CSR
**Q.** Does B1 bind?
**A.** no binding
